Sequences and labels used below:
B1: BDG38.134 (antibody, V domains shown)
VH: QMQLVESGGGVVQPGQSLRLSCAASGFEFRTYGMHWVRQAPGKGLEWLAVIWYDGSNTHYADSVKGRFTITRDNSKNTLNLQMNSLRAEDTAVYYCVRAPQWYNSAEAFDLWGQGTMVTVSS
VL: SYVLTQPPSVSVAPGQTARITCGGNLIGARLVHWYQQKPGQAPVLVIYDDSDRPSHIPERFSGSNSGNTATLTISRVEAGDEADYYCQVWDYSADTMVFGGGTKLTVL
notes: IgG1
B2: BDG38.127 (antibody, V domains shown)
VH: B1 VH with Q16R, R19T, L48V, A49G, N57A, V97A, N104L, S105T
VL: B1 VL with V3I, Q16E, R19T, R30K, H56R, S66I, R76D, S93Y, A94S, M97Y
notes: IgG1
B3: BDG38.118 (antibody, V domains shown)
VH: B1 VH with Q16R, L48V, A49G, N57A, A88V, N104L, S105T
VL: B1 VL with V3I, Q16E, R19T, H56R, S66I, R76D, A79E, A94S, T96H, M97Y
notes: IgG1
B4: BDG38.091 (antibody, V domains shown)
VH: B1 VH with Q16R, R19T, A49G, A88V, N104L, S105T
VL: SYILTQPPSVSVAPGETATITCGGNLIGSRLVHWYQQKPGQAPVLVIYDDSDRPSRIPERFSGSNIGNTATLTISDVEAGDEADYYCQVWDHYSNHYVFGGGTKLTVL
notes: IgG1
B5: BDG38.110 (antibody, V domains shown)
VH: B1 VH with Q16R, L48V, Y53D, N104L, S105T
VL: B4 VL with A18T, T19R, S29A, R30K, S75E, H92Y, Y93S, Y97M
notes: IgG1
B6: BDG38.098 (antibody, V domains shown)
VH: B1 VH with Q16R, R19T, L48V, Y53D, H59V, A88V, N104L, S105T
VL: B1 VL with R19T, H56R, S66I, A94S, T96S
notes: IgG1
B7: BDG38.115 (antibody, V domains shown)
VH: B1 VH with Q16R, R19T, A49G, N104L, S105T
VL: B4 VL with E16Q, S29A, I66S, A79E, H92Y, Y93S, H96T
notes: IgG1
B8: BDG38.107 (antibody, V domains shown)
VH: B1 VH with Q16R, R19T, L48V, A49G, N104L, S105T
VL: B4 VL with E16Q, S29A, S75E, D76R, A79E, H92Y, Y93S, N95D, H96S
notes: IgG1
B9: BDG38.136 (antibody, V domains shown)
VH: B1 VH with Q16R
VL: B1 VL with R30K, A94S
B10: BDG38.141 (antibody, V domains shown)
VH: B1 VH with Q16R, L48V, Y53D, N104L, S105T
VL: B4 VL with N25A, A79E, H92Y, Y97M
B11: BDG38.133 (antibody, V domains shown)
VH: B1 VH with Q16R, L48V, Y53D, N104L, S105T
VL: B4 VL with S29A, D76R, H92Y, Y93S, N95D, H96T
B12: BDG38.120 (antibody, V domains shown)
VH: B1 VH with Q16R, L48V, Y53D, N104L, S105T
VL: B4 VL with S29A, I66S, H92Y, Y93S, N95D, Y97M
B13: BDG38.086 (antibody, V domains shown)
VH: B1 VH with Q16R, L48V, A49G, N104L, S105T
VL: B1 VL with I47V, H56R, S66I, R76D, A79E, A94S, D95N, M97Y
B14: BDG38.124 (antibody, V domains shown)
VH: B1 VH with Q16R, L48V, A49G, Y53D, N104L, S105T
VL: B4 VL with S29A, H92Y, Y93S, N95D, H96T
B15: BDG38.142 (antibody, V domains shown)
VH: B1 VH with Q16R, R19T, L48V, Y53D, N104L, S105T
VL: SYILTQPPSVSVAPGQTATITCGGNLIGAKLVHWYQQKPGQAPVLVVYDDSDRPSRIPERFSGSNIGNTATLTIERVEEGDEADYYCQVWDYYSHTMVFGGGTKLTVL
B16: BDG38.143 (antibody, V domains shown)
VH: B1 VH with Q16R, L48V, A49G, Y53D, N57A, A88V, N104L, S105T
VL: B15 VL with N25A, K30R, V47I, E75S, Y93S, H95N, M97Y
B17: BDG38.123 (antibody, V domains shown)
VH: B1 VH with Q16R, L48V, Y53D, N104L, S105T
VL: B4 VL with S29A, H92Y, Y93S, N95D, H96T
B18: BDG38.130 (antibody, V domains shown)
VH: B1 VH with Q16R, R19T, E28A, L48V, Y53D, A88V, N104L, S105T
VL: B4 VL with S29A, S75E, D76R, H92Y, Y93S, H96S
B19: BDG38.122 (antibody, V domains shown)
VH: B1 VH with Q16R, L48V, Y53D, N104L, S105T
VL: B4 VL with S29A, D76R, A79E, H92Y, Y93S, N95D, H96S

The record followed here is patent publication US20240059769A1 (BIOLOJIC DESIGN, published 2024).

Numbering of substitutions follows the chain as printed.

For the first assay, the target named is T1, recombinant human IL-13 (human, UniProt P35225 35-146).
T1 construct: also called rh-IL-13; hIL-13
T1 sequence (P35225 35-146 limits assumed): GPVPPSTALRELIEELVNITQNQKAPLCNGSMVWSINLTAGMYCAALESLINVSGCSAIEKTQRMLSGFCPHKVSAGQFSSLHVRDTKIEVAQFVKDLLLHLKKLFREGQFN
Put plainly: SPR. Background: SPR reads the build-up and loss of mass on a sensor chip optically.
Turning to B1, the Kd (in general, the free concentration of one partner at which half of the binding sites on the other are occupied at equilibrium, for simple one-to-one binding) was determined as 0.507 nM; the off-rate (koff) (in general, a measure of how fast the partners let go of each other) was found to be 0.00156 s⁻¹; the kon (in general, a measure of how fast the partners come together) turned out to be 3.07e+06 M⁻¹ s⁻¹.
Take B2: the Kd was found to be 0.00847 nM, the koff came to 5.01e-05 s⁻¹ and the on-rate constant (kon) was 5.91e+06 M⁻¹ s⁻¹.
The like results for B3 were, in that order, 0.0157 nM, 6.7e-05 s⁻¹ and 4.27e+06 M⁻¹ s⁻¹.

In the next assay the target is T2, human TSLP (human, UniProt Q969D9 29-159).
T2 construct: also called hTSLP; rhTSLP
Briefly: SPR.
In turn, B1 displayed a Kd of 0.00858 nM, a koff of 4.17e-05 s⁻¹ and a kon of 4.86e+06 M⁻¹ s⁻¹.
Consider B2, for which the affinity, expressed as Kd, was 0.991 nM; the koff is 0.000427 s⁻¹; the kon was 431000 M⁻¹ s⁻¹.
The like results for B3 were, in that order, 0.964 nM, 0.00043 s⁻¹ and 446000 M⁻¹ s⁻¹.

The next assay deals with T1, recombinant human IL-13. Put plainly: SPR. This is another data set of the same source.
For the molecule B4, the Kd amounted to 0.0604 nM, the koff stood at 0.000216 s⁻¹ and the kon came to 3.57e+06 M⁻¹ s⁻¹.
The corresponding values for B5 are 0.0742 nM, 0.000427 s⁻¹ and 5.75e+06 M⁻¹ s⁻¹.
The like results for B6 were, in that order, 0.0239 nM, 0.000138 s⁻¹ and 5.8e+06 M⁻¹ s⁻¹.
The corresponding values for B7 are 0.125 nM, 0.000455 s⁻¹ and 3.63e+06 M⁻¹ s⁻¹.
In the case of B8, the Kd was 0.00274 nM, the koff is 2.02e-05 s⁻¹ and the kon amounted to 7.36e+06 M⁻¹ s⁻¹.

The target in the next assay is T2, human TSLP. Put plainly: SPR. This is another data set of the same source.
B4: binding was characterised by a dissociation constant (Kd) of 0.0621 nM, the koff came to 8.67e-05 s⁻¹ and the kon amounted to 1.4e+06 M⁻¹ s⁻¹.
The like results for B5 were, in that order, 0.129 nM, 0.000298 s⁻¹ and 2.31e+06 M⁻¹ s⁻¹.
The corresponding values for B6 are 0.0275 nM, 0.000237 s⁻¹ and 8.6e+06 M⁻¹ s⁻¹.
As for B7, the Kd was 0.84 nM, the koff turned out to be 0.000532 s⁻¹ and the kon was 634000 M⁻¹ s⁻¹.
The like results for B8 were, in that order, 0.151 nM, 8.16e-05 s⁻¹ and 541000 M⁻¹ s⁻¹.

A further assay deals with T1, recombinant human IL-13. Briefly: cell-based or functional assay.
Turning to B4, the “HEK-IL-13 [nM] (IC50, STAT6 reporter)” value was determined as 0.0832 nM.
Still for that read-out and setting: as for B9, the figure is 0.151 nM; as for B10, 0.0824 nM.
The same measure, in the same setting: for B11 the value was 0.029 nM; for B12, 0.265 nM.
Still for that read-out and setting: for B13 the value was 0.0174 nM; for B14, 0.0523 nM; for B15, 0.0584 nM.
B16: the “HEK-IL-13 [nM] (IC50, STAT6 reporter)” value is 0.0438 nM.
On to B1, for which the “HEK-IL-13 [nM] (IC50, STAT6 reporter)” value came to 0.271 nM.
On to B17, for which the “HEK-IL-13 [nM] (IC50, STAT6 reporter)” value amounted to 0.044 nM.
Still for that read-out and setting: for B18 the value was 0.0646 nM; for B19, 0.079 nM.
Still for that read-out and setting: for B2 the value was 0.044 nM; for B5, 0.0299 nM.
Take B6: the “HEK-IL-13 [nM] (IC50, STAT6 reporter)” value worked out at 0.0884 nM.
Consider B7, for which the “HEK-IL-13 [nM] (IC50, STAT6 reporter)” value stood at 0.0664 nM.
Still for that read-out and setting: for B8 the value was 0.0943 nM.
Same read-out and setting: for B3 the value was 0.0804 nM.

Another assay concerns the target hTSLP-His (human, UniProt Q969D9 29-159, limits assumed). Put plainly: cell-based or functional assay.
As for B4, the “IC50 [pM], STAT5 phosphorylation inhibition in MUTZ5 cells” value worked out at 0.507 pM.
Regarding B12, the “IC50 [pM], STAT5 phosphorylation inhibition in MUTZ5 cells” value is 0.232 pM.
On the same count and under the same terms, as for B13, the figure is 830 pM; as for B1, 32 pM.
On the same count and under the same terms, for B2 the value was 0.143 pM; for B5, 0.295 pM; for B6, 68.8 pM.
The same measure, in the same setting: for B7 the value was 300 pM.
With B8, the “IC50 [pM], STAT5 phosphorylation inhibition in MUTZ5 cells” value was found to be 0.508 pM.
On the same count and under the same terms, for B3 the value was 0.688 pM.
